# Measured values: the supplement of paper PMC11811203
# B1: THAP1; numbered along this chain (parent)
# chain: MVQSCSAYGCKNRYDKDKPVSFHKFPLTRPSLCKEWEAAVRRKNFKPTKYSSICSEHFTPDCFKRECNNKLLKENAVPTIFLCTEPHDKKEDLLEPQEQLPPPPLPPPVSQVDAAIGLLMPPLQTPVNLSVFCDHNYTVEDTMHQRKRIHQLEQQVEKLRKKLKTAQQRCRRQERQLEKLKEVVHFQKEKDDVSERGYVILPNDYFEIVEVPA
# Variants of: B1
# Assay: THAP1 transcriptional activity (GFP+/GFP- enrichment relative to wild-type constructs) (ratio to WT); higher = more THAP1 activity (PSMB5 reporter activation)
# Details: with PSMB5 promoter-GFP reporter
# Summary of the method: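 In duplicate, a lentivirus-delivered library with every residue from 2–213 of human THAP1 changed to all 20 amino acids was introduced at MOI ~0.3 into THAP1-knockout HEK-293T cells carrying endogenous PSMB5 tagged by mClover3 knock-in. Five days on, BFP+ cells were binned as GFP-dim or GFP-bright, and Illumina sequencing of genomic DNA amplicons counted each variant. Activity is the bright/dim read fold change, averaged over replicates and scaled to the mean of wild-type synonymous constructs.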
row,Variant,THAP1 transcriptional activity
1,MVQSCSAYGCKNRYDKDKPVSFHKFPLTRPSLCKEWEAAVRRKNFKPTKYSSICSEHFTPDCFKRECNNKLLKENAVPTIFLCTEPHDKKEDLLEPQEQLPPPPLPPPVSQVDAAIGLLMPPLQTPVNLSVFCDHNYTVEDTMHQRKRIHQLEQQVEKLRKKLKTAQQRCRRQERQLEKLKEVVHWQKEKDDVSERGYVILPNDYFEIVEVPA [F186W],1.1
2,MVQSCSAYGCKNRYDKDKPVSFHKFPLTRPSLCKEWEAAVRRKNFKPTKYSSICSEHFTPDCFKRECNNKLLKENAVPTIFLCTEPHDKKEDLLEPQEQLPPPPLPPPVSQVDAAIGLLMPPLQTPVNLSVFCDHNYTVEDTMHQRKRIHQLEQQVEKLRKKLKTAQQRCRRQERQLEKLKEVVHCQKEKDDVSERGYVILPNDYFEIVEVPA [F186C],2.01
3,MVQSCSAYGCKNRYDKDKPVSFHKFPLTRPSLCKEWEAAVRRKNFKPTKYSSICSEHFTPDCFKRECNNKLLKENAVPTIFLCTEPHDKKEDLLEPQEQLPPPPLPPPVSQVDAAIGLLMPPLQTPVNLSVFCDHNYTVEDTMHQRKRIHQLEQQVEKLRKKLKTAQQRCRRQERQLEKLKEVVHGQKEKDDVSERGYVILPNDYFEIVEVPA [F186G],1.63
4,MVQSCSAYGCKNRYDKDKPVSFHKFPLTRPSLCKEWEAAVRRKNFKPTKYSSICSEHFTPDCFKRECNNKLLKENAVPTIFLCTEPHDKKEDLLEPQEQLPPPPLPPPVSQVDAAIGLLMPPLQTPVNLSVFCDHNYTVEDTMHQRKRIHQLEQQVEKLRKKLKTAQQRCRRQERQLEKLKEVVHAQKEKDDVSERGYVILPNDYFEIVEVPA [F186A],1.67
5,MVQSCSAYGCKNRYDKDKPVSFHKFPLTRPSLCKEWEAAVRRKNFKPTKYSSICSEHFTPDCFKRECNNKLLKENAVPTIFLCTEPHDKKEDLLEPQEQLPPPPLPPPVSQVDAAIGLLMPPLQTPVNLSVFCDHNYTVEDTMHQRKRIHQLEQQVEKLRKKLKTAQQRCRRQERQLEKLKEVVHEQKEKDDVSERGYVILPNDYFEIVEVPA [F186E],1.64
6,MVQSCSAYGCKNRYDKDKPVSFHKFPLTRPSLCKEWEAAVRRKNFKPTKYSSICSEHFTPDCFKRECNNKLLKENAVPTIFLCTEPHDKKEDLLEPQEQLPPPPLPPPVSQVDAAIGLLMPPLQTPVNLSVFCDHNYTVEDTMHQRKRIHQLEQQVEKLRKKLKTAQQRCRRQERQLEKLKEVVHDQKEKDDVSERGYVILPNDYFEIVEVPA [F186D],1.4
7,MVQSCSAYGCKNRYDKDKPVSFHKFPLTRPSLCKEWEAAVRRKNFKPTKYSSICSEHFTPDCFKRECNNKLLKENAVPTIFLCTEPHDKKEDLLEPQEQLPPPPLPPPVSQVDAAIGLLMPPLQTPVNLSVFCDHNYTVEDTMHQRKRIHQLEQQVEKLRKKLKTAQQRCRRQERQLEKLKEVVNFQKEKDDVSERGYVILPNDYFEIVEVPA [H185N],1.01
8,MVQSCSAYGCKNRYDKDKPVSFHKFPLTRPSLCKEWEAAVRRKNFKPTKYSSICSEHFTPDCFKRECNNKLLKENAVPTIFLCTEPHDKKEDLLEPQEQLPPPPLPPPVSQVDAAIGLLMPPLQTPVNLSVFCDHNYTVEDTMHQRKRIHQLEQQVEKLRKKLKTAQQRCRRQERQLEKLKEVVTFQKEKDDVSERGYVILPNDYFEIVEVPA [H185T],1.07
9,MVQSCSAYGCKNRYDKDKPVSFHKFPLTRPSLCKEWEAAVRRKNFKPTKYSSICSEHFTPDCFKRECNNKLLKENAVPTIFLCTEPHDKKEDLLEPQEQLPPPPLPPPVSQVDAAIGLLMPPLQTPVNLSVFCDHNYTVEDTMHQRKRIHQLEQQVEKLRKKLKTAQQRCRRQERQLEKLKEVVVFQKEKDDVSERGYVILPNDYFEIVEVPA [H185V],0.579
10,MVQSCSAYGCKNRYDKDKPVSFHKFPLTRPSLCKEWEAAVRRKNFKPTKYSSICSEHFTPDCFKRECNNKLLKENAVPTIFLCTEPHDKKEDLLEPQEQLPPPPLPPPVSQVDAAIGLLMPPLQTPVNLSVFCDHNYTVEDTMHQRKRIHQLEQQVEKLRKKLKTAQQRCRRQERQLEKLKEVVWFQKEKDDVSERGYVILPNDYFEIVEVPA [H185W],0.528
11,MVQSCSAYGCKNRYDKDKPVSFHKFPLTRPSLCKEWEAAVRRKNFKPTKYSSICSEHFTPDCFKRECNNKLLKENAVPTIFLCTEPHDKKEDLLEPQEQLPPPPLPPPVSQVDAAIGLLMPPLQTPVNLSVFCDHNYTVEDTMHQRKRIHQLEQQVEKLRKKLKTAQQRCRRQERQLEKLKEVVSFQKEKDDVSERGYVILPNDYFEIVEVPA [H185S],1.02
12,MVQSCSAYGCKNRYDKDKPVSFHKFPLTRPSLCKEWEAAVRRKNFKPTKYSSICSEHFTPDCFKRECNNKLLKENAVPTIFLCTEPHDKKEDLLEPQEQLPPPPLPPPVSQVDAAIGLLMPPLQTPVNLSVFCDHNYTVEDTMHQRKRIHQLEQQVEKLRKKLKTAQQRCRRQERQLEKLKEVVRFQKEKDDVSERGYVILPNDYFEIVEVPA [H185R],1.31
13,MVQSCSAYGCKNRYDKDKPVSFHKFPLTRPSLCKEWEAAVRRKNFKPTKYSSICSEHFTPDCFKRECNNKLLKENAVPTIFLCTEPHDKKEDLLEPQEQLPPPPLPPPVSQVDAAIGLLMPPLQTPVNLSVFCDHNYTVEDTMHQRKRIHQLEQQVEKLRKKLKTAQQRCRRQERQLEKLKEVVYFQKEKDDVSERGYVILPNDYFEIVEVPA [H185Y],0.905
14,MVQSCSAYGCKNRYDKDKPVSFHKFPLTRPSLCKEWEAAVRRKNFKPTKYSSICSEHFTPDCFKRECNNKLLKENAVPTIFLCTEPHDKKEDLLEPQEQLPPPPLPPPVSQVDAAIGLLMPPLQTPVNLSVFCDHNYTVEDTMHQRKRIHQLEQQVEKLRKKLKTAQQRCRRQERQLEKLKEVVPFQKEKDDVSERGYVILPNDYFEIVEVPA [H185P],0.76
